Measured values as given in patent US20210238298A1 (ALLIGATOR BIOSCIENCE, published 2021).

Columns and labels:
[1] = biological target: T1, Human OX40 (R&D systems, #3358_OX) (human, UniProt P43489 29-216); test: ELISA, coated recombinant human OX40
T1 construct: Bought; Several catalogue numbers are given for it; also called human OX40 (R&D Systems, 3388-OX); OX40-Fc (R&D systems, #3358_OX); not shown: Fc part
T1 sequence: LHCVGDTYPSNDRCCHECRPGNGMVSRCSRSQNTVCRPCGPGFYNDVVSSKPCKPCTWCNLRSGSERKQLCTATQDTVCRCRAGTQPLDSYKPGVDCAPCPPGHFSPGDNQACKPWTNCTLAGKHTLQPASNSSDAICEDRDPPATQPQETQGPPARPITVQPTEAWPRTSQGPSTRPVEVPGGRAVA
Description: (§1) ELISA plates (Greiner #655074) were coated with 50 μl/well of recombinant human OX40 (R&D #1493-CD), CD40-Fc (Ancell #504-820) or CD137 (R&D #838-4B) diluted to a final concentration of 0.5 μg/ml in PBS for 1 h at 37° C. or overnight at 4° C. Plates were washed with PBS+0.05% TWEEN20 (PBST), followed by block with PBST+1% bovine serum albumin (BSA). Antibody samples were prepared as serial 1/10 dilutions from 10-0.01 μg/ml in PBST+1% BSA and incubated for 1h in room temperature, followed by detection using a horse radish peroxidase-conjugated anti-human kappa light chain antibody (AbD Serotec #STAR127P) and developed using SuperSignal ELISA Pico Chemiluminescent substrate (Pierce ThermoScientific #37069).

[2] = biological target: T2, extracellular part of cynomolgus CD137 fused to the transmembrane and intracellular part of hCD40, on CHO … (cynomolgus (Macaca fascicularis); human, UniProt A9YYE7 24-186; P25942 194-277); test: flow cytometry, CHO cells; 95% confidence interval
T2 construct: extracellular domain;domain: transmembrane and intracellular part; also called CHO-cyCD137; cyno CD137
Description: (§2) Binding and EC50 to human and cynomolgus (Macaca fascicularis) CD137 was determined using flow cytometry of CHO cells transfected with human CD137, cynomolgus CD137 or empty vector. The extracellular part of human or cynomolgus CD137 was fused to the transmembrane and intracellular part of human CD40 and cloned into pcDNA3.0. The vector was subsequently stably transfected into CHO cells. […] CD137-transfected and empty vector-transfected cells were incubated with CD137 antibodies for at least 1h at 4° C. to saturate the binding. In order to minimize antibody internalization, 0.05% sodium azide was used in the incubation buffer and all work was performed on ice. […] Directly after staining the cells were fixed with a paraformaldehyde solution (10× concentrate BD CellFIX, BD biosciences #340181). Cells were analyzed by flow cytometry using FACSVerse (BD Biosciences). The median fluorescence intensity (MFI) for each sample was determined and the dose response data was analysed using Graph Pad Prism.
(§3) MFI data was normalized for each antibody, where 0% is defined as the lowest value and 100% is the highest value in the dose titration for each antibody.

[3] = biological target: T3, extracellular part of human CD137 fused to the transmembrane and intracellular part of hCD40, on CHO cells (human, UniProt P25942 194-277, limits assumed); test: flow cytometry, CHO cells; 95% confidence interval
T3 construct: domain: transmembrane and intracellular part; also called CHO-huCD137; human CD137 over-expressed on CHO cells
Description: as §2, §3

[4] = biological target: CD137 on primary human CD8+ T cells (human, UniProt Q07011 24-255); test: cell-based or functional assay
[5] = biological target: T4, recombinant human CD137-Fc (R&D #838-4B) (human, UniProt Q07011 24-186); test: ELISA, coated CD137-Fc; mean
T4 construct: Bought; also called Human CD137 (R&D systems); CD137 (R&D Systems); not shown: Fc part, not described

[6] = biological target: T4, recombinant human CD137-Fc (R&D #838-4B); test: SPR (summary table); column headed ka (1/s)
[7] = biological target: T4, recombinant human CD137-Fc (R&D #838-4B); test: SPR (summary table)
CD40 (Ancell) = biological target: T5, CD40 (Ancell) (UniProt P25942 21-193); test: ELISA, coated CD40-Fc
T5 construct: also called CD40-Fc (Ancell #504-820); not shown: Fc part, not described
Description: as §1

[8] = biological target: T2, extracellular part of cynomolgus CD137 …; test: flow cytometry, CHO cells; against human CD137
Description: as §2, §3

[9] = biological target: T4, recombinant human CD137-Fc (R&D #838-4B); test: SPR (Biacore), immobilised human CD137, bivalent antibody in flow
Description: Human CD137 (R&D systems) was immobilized to the Biacore™ sensorchip, CM5, using conventional amine coupling. The tested antibody and control (serially diluted ½ 10-0.63 nM) were analyzed for binding in HBS-P (GE, #BR-1003-68) at a flow rate of […]. The association was followed for 5 minutes and the dissociation for 15 minutes. Regeneration was performed twice using 10 mM Glycine pH 1.7 for 30 seconds. The kinetic parameters and the affinity constants were calculated using 1:1 Langmuir model.

[10] = biological target: T6, CD137 chimera 1555 (1412): human CD137 with mouse domains 1 and 4B and region of unknown function (aa 24-46 … (human; mouse, UniProt P20334 24-45; P20334 139-185); test: flow cytometry, 293-F transfectants
T6 construct: domain: 1;domain: 4B and region of unknown function

[11] = biological target: T7, CD137 chimera 1553 (1410): human CD137 with mouse domains 3A, 3B and 4A (aa 87-133), on FreeStyle 293-F cells (human; mouse, UniProt P20334 86-133); test: flow cytometry, 293-F transfectants
T7 construct: domain: 3A, 3B and 4A

[12] = biological target: T8, CD137 chimera 1552 (1409): human CD137 with mouse domains 2B, 3A and 3B (aa 64-118), on FreeStyle 293-F cells (human; mouse, UniProt P20334 63-117); test: flow cytometry, 293-F transfectants
T8 construct: domain: 2B, 3A and 3B

[13] = biological target: construct 1030: full length human CD137, on FreeStyle 293-F cells (human, UniProt Q07011 24-255); test: flow cytometry, 293-F transfectants
[14] = biological target: T9, CD137 chimera 1551 (1408): human CD137 with mouse domains 2A, 2B and 3A (aa 47-96), on FreeStyle 293-F cells (human; mouse, UniProt P20334 46-95); test: flow cytometry, 293-F transfectants
T9 construct: domain: 2A, 2B and 3A

[15] = biological target: T10, CD137 chimera 1554 (1411): human CD137 with mouse domains 3B, 4A and 4B (aa 97-159), on FreeStyle 293-F cells (human; mouse, UniProt P20334 96-159); test: flow cytometry, 293-F transfectants
T10 construct: domain: 3B, 4A and 4B

[16] = biological target: T11, CD137 chimera 1550 (1407): human CD137 with mouse domains 1, 2A and 2B (aa 24-86), on FreeStyle 293-F cells (human; mouse, UniProt P20334 24-85); test: flow cytometry, 293-F transfectants
T11 construct: domain: 1, 2A and 2B

[17] = biological target: T3, extracellular part of human CD137 fused …; test: flow cytometry, CHO transfectants (summary table)

T4 sequence (Q07011 24-186 limits assumed): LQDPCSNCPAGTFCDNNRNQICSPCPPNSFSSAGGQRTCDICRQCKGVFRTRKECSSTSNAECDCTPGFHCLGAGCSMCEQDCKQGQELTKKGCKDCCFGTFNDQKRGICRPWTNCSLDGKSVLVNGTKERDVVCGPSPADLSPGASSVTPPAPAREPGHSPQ
CD137 on primary human CD8+ T cells, sequence (Q07011 24-255 limits assumed): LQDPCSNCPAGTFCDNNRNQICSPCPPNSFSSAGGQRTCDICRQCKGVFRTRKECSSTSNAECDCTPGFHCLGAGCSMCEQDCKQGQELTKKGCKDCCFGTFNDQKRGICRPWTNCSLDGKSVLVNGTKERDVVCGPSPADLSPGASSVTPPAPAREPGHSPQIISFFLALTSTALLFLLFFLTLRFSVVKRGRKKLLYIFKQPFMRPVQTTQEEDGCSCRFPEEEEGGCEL
T2 sequence (P25942 other isoform, or with tags, fused parts or gaps): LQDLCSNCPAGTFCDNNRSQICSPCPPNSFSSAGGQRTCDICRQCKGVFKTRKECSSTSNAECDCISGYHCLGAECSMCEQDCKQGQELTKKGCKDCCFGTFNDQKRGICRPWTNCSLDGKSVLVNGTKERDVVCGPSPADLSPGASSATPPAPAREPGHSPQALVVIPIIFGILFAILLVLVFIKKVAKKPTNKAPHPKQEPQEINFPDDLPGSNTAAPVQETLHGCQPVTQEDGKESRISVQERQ
T3 sequence (P25942 other isoform, or with tags, fused parts or gaps limits assumed): as the sequence (P25942 other isoform, or with tags, fused parts or gaps) above, with L4P, S19N, K50R, I66T, S67P, Y69F, E75G, A149V counted along it
T7 sequence (P20334 other isoform, or with tags, fused parts or gaps mutant limits assumed): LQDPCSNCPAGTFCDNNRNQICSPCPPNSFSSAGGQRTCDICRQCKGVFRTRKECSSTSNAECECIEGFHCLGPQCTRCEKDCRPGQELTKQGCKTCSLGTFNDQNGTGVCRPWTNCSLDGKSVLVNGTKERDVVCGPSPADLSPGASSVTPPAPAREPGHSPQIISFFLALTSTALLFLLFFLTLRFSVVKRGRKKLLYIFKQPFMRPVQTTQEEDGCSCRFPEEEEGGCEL
T8 sequence (P20334 other isoform, or with tags, fused parts or gaps mutant limits assumed): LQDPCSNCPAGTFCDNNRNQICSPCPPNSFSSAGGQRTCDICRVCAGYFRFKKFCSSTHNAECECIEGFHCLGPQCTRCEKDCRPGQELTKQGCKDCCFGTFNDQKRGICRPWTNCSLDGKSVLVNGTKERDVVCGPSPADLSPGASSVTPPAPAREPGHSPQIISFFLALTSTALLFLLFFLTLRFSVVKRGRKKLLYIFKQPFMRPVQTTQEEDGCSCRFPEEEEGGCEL
T10 sequence (P20334 other isoform, or with tags, fused parts or gaps mutant limits assumed): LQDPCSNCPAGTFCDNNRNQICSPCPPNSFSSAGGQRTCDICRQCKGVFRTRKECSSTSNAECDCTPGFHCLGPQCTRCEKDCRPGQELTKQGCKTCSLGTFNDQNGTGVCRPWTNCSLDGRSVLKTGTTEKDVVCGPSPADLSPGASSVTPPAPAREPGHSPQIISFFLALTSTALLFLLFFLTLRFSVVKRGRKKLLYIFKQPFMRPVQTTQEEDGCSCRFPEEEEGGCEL
T5 sequence (P25942 21-193 limits assumed): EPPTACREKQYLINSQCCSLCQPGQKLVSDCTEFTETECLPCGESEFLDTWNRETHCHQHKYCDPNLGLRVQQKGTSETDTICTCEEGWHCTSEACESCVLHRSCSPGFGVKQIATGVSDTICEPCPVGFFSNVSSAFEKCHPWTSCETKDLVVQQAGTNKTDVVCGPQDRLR
T11 sequence (P20334 other isoform, or with tags, fused parts or gaps mutant limits assumed): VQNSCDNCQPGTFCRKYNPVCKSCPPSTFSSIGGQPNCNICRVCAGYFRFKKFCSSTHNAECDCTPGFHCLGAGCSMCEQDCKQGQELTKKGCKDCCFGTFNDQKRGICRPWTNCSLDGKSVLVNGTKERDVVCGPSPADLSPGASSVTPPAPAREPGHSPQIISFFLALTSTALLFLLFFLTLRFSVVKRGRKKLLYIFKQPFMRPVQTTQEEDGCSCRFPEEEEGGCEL
T6 sequence (P20334 other isoform, or with tags, fused parts or gaps mutant limits assumed): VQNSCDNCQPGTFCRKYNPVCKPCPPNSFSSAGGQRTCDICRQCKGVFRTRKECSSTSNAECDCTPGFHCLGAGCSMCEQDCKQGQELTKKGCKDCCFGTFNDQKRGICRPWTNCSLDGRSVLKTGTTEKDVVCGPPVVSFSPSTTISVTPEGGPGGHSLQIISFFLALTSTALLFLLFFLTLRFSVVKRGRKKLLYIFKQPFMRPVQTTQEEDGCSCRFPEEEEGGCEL
T9 sequence (P20334 other isoform, or with tags, fused parts or gaps mutant limits assumed): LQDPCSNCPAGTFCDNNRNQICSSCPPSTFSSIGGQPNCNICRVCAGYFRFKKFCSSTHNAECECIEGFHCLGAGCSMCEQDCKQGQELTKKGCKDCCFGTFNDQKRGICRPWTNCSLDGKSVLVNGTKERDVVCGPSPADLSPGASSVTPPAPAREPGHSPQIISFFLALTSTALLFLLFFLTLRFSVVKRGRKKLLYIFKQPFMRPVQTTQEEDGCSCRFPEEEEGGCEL
construct 1030: full length human CD137, on FreeStyle 293-F cells, sequence (Q07011 24-255 limits assumed): as the sequence (Q07011 24-255 limits assumed) above

binding result [1]: no binding (tested: 10 µg/ml)
EC50 [2]: 0.086 to 0.15 µg/mL
EC50 [3]: 0.11 to 0.19 µg/mL
Max IFN-γ [4]: 111000 pg/mL
Mean IFN-γ [4]: 33600 pg/mL
Min IFN-γ [4]: 7380 pg/mL
EC50 [5]: 0.35 nM
koff [6]: 0.0001 s⁻¹
Kd [7]: 0.1 nM
kon [7]: 1e+06 M⁻¹ s⁻¹
binding result (CD40 (Ancell)): no binding (tested: 10 µg/ml)
Ratio, cyno:human (EC50) [8]: 0.77
Kd [9]: 0.107 nM
koff [9]: 0.00011 s⁻¹
kon [9]: 1.02e+06 M⁻¹ s⁻¹
relative binding (MFI sample/isotype control, normalised to full-length human CD137) [10]: 0.12
relative binding (MFI sample/isotype control, normalised to full-length human CD137) [11]: 1.24
relative binding (MFI sample/isotype control, normalised to full-length human CD137) [12]: 1.2
relative binding (MFI sample/isotype control, normalised to full-length human CD137) [13]: 1
relative binding (MFI sample/isotype control, normalised to full-length human CD137) [14]: 0.67
relative binding (MFI sample/isotype control, normalised to full-length human CD137) [15]: 1.01
relative binding (MFI sample/isotype control, normalised to full-length human CD137) [16]: 0.11
EC50 [17]: 0.11 to 0.19 µg/mL
B1: anti-CD137 antibody 1618/1619 (antibody, IgG1, V domains shown)
VH: EVQLLESGGGLVQPGGSLRLSCAASGFTFSYGSMYWVRQAPGKGLEWVSSISSGSGSTYYADSVKGRFTISRDNSKNTLYLQMNSLRAEDTAVYYCARSSYYGSYYSIDYWGQGTLVTVSS
VL: DIQMTQSPSSLSASVGDRVTITCRASQSISSYLNWYQQKPGKAPKLLIYAASSLQSGVPSRFSGSGSGTDFTLTISSLQPEDFATYYCQQYYDNLPTFGQGTKLEIK
notes: Produced as IgG; also called 1618-bio
